In patent publication US20260049138A1 (Chugai, published 2026):
Substitutions are numbered along the chain they refer to. Numbers in names are those of the source. Values belong to the binder of their own block, whether it stands above or below them.

Target: T1, CD3ε homodimer protein (human, UniProt P07766 23-126, limits assumed, sulfo-tag or biotin label in the ECL assays; amine-coupled to the chip in SPR)
T1 construct: also called human CD3ε homodimer protein; CD3 (CD3ε)
Experiment: SPR Biacore T200; CD3ε homodimer on CM4 chip;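 further: Single-residue variant antibodies injected as analyte over CD3ε homodimer immobilized by amine coupling, run at 25 °C in HBS-EP+ buffer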

T1 sequence (P07766 23-126 limits assumed): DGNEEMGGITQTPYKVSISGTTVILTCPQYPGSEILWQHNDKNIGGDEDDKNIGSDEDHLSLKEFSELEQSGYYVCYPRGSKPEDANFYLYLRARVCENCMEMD

ratio of amounts bound Z=Y/X (altered form / CE115HA000): 1.07
B1: CE115HA000 E61Q one-arm antibody (antibody, human IgG1, kappa, L234A L235A, N297A, name in Kabat numbering)
heavy: QVQLVESGGGVVQPGRSLRLSCAASGFTFSNAWMHWVRQAPGKGLEWVAQIKAKSNNYATYYAQSVKGRFTISRDDSKNSLYLQMNSLKTEDTAVYYCRYVHYGAYYGVDAWGQGTTVTVSSASTKGPSVFPLAPSSKSTSGGTAALGCLVKDYFPEPVTVSWNSGALTSGVHTFPAVLQSSGLYSLSSVVTVPSSSLGTQTYICNVNHKPSNTKVDKKVEPKSCDKTHTCPPCPAPEAAGGPSVFLFPPKPKDTLMISRTPEVTCVVVDVSHEDPEVKFNWYVDGVEVHNAKTKPREEQYASTYRVVSVLTVLHQDWLNGKEYKCKVSNKALPAPIEKTISKAKGQPREPQVYTLPPSRCELTKNQVSLSCAVKGFYPSDIAVEWESNGQPENNYKTTPPVLDSDGSFFLVSKLTVDKSRWQQGNVFSCSVMHEALHNHYTQKSLSLSPDYKDDDDK
chain: EPKSSDKTHTCPPCPAPELLGGPSVFLFPPKPKDTLMISRTPEVTCVVVDVSHEDPEVKFNWYVDGVEVHNAKTKPREEQYNSTYRVVSVLTVLHQDWLNGKEYKCKVSNKALPAPIEKTISKAKGQPREPQVCTLPPSRDELTKNQVSLWCLVKGFYPSDIAVEWESNGQPENNYKTTPPVLDSDGSFFLYSKLTVDKSRWQQGNVFSCSVMHEALHNRYTQKSLSLSP
light: DIVMTQSPLSLPVTPGEPASISCRSSQSLVHSNRNTYLHWYQQKPGQAPRLLIYKVSNRFSGVPDRFSGSGSGTDFTLKISRVEAEDVGVYYCGQGTQVPYTFGQGTKLEIKRTVAAPSVFIFPPSDEQLKSGTASVVCLLNNFYPREAKVQWKVDNALQSGNSQESVTEQDSKDSTYSLSSTLTLSKADYEKHKVYACEVTHQGLSSPVTKSFNRGEC

ratio of amounts bound Z=Y/X (altered form / CE115HA000): 0.13
B2: CE115HA000 H35Q one-arm antibody (antibody, human IgG1, kappa, L234A L235A, N297A, name in Kabat numbering)
heavy: B1 heavy with H35Q, Q64E
chain: B1 chain
light: B1 light

ratio of amounts bound Z=Y/X (altered form / CE115HA000): 0.21
B3: CE115HA000 H35F one-arm antibody (antibody, human IgG1, kappa, L234A L235A, N297A, name in Kabat numbering)
heavy: B1 heavy with H35F, Q64E
chain: B1 chain
light: B1 light

ratio of amounts bound Z=Y/X (altered form / CE115HA000): 0.23
B4: CE115HA000 H35S one-arm antibody (antibody, human IgG1, kappa, L234A L235A, N297A, name in Kabat numbering)
heavy: B1 heavy with H35S, Q64E
chain: B1 chain
light: B1 light

ratio of amounts bound Z=Y/X (altered form / CE115HA000): 0.15
B5: CE115HA000 H35K one-arm antibody (antibody, human IgG1, kappa, L234A L235A, N297A, name in Kabat numbering)
heavy: B1 heavy with H35K, Q64E
chain: B1 chain
light: B1 light

ratio of amounts bound Z=Y/X (altered form / CE115HA000): 1.02
B6: CE115HA000 G98P one-arm antibody (antibody, human IgG1, kappa, L234A L235A, N297A, name in Kabat numbering)
heavy: B1 heavy with Q64E, G104P
chain: B1 chain
light: B1 light

ratio of amounts bound Z=Y/X (altered form / CE115HA000): 1.1
B7: CE115HA000 G98A one-arm antibody (antibody, human IgG1, kappa, L234A L235A, N297A, name in Kabat numbering)
heavy: B1 heavy with Q64E, G104A
chain: B1 chain
light: B1 light

ratio of amounts bound Z=Y/X (altered form / CE115HA000): 0.19
B8: CE115HA000 H35E one-arm antibody (antibody, human IgG1, kappa, L234A L235A, N297A, name in Kabat numbering)
heavy: B1 heavy with H35E, Q64E
chain: B1 chain
light: B1 light

ratio of amounts bound Z=Y/X (altered form / CE115HA000): 0.14
B9: CE115HA000 H35R one-arm antibody (antibody, human IgG1, kappa, L234A L235A, N297A, name in Kabat numbering)
heavy: B1 heavy with H35R, Q64E
chain: B1 chain
light: B1 light

ratio of amounts bound Z=Y/X (altered form / CE115HA000): 0.22
B10: CE115HA000 H35G one-arm antibody (antibody, human IgG1, kappa, L234A L235A, N297A, name in Kabat numbering)
heavy: B1 heavy with H35G, Q64E
chain: B1 chain
light: B1 light

ratio of amounts bound Z=Y/X (altered form / CE115HA000): 0.26
B11: CE115HA000 G100bE one-arm antibody (antibody, human IgG1, kappa, L234A L235A, N297A, name in Kabat numbering)
heavy: B1 heavy with Q64E, G108E
chain: B1 chain
light: B1 light

ratio of amounts bound Z=Y/X (altered form / CE115HA000): 0.12
B12: CE115HA000 H35I one-arm antibody (antibody, human IgG1, kappa, L234A L235A, N297A, name in Kabat numbering)
heavy: B1 heavy with H35I, Q64E
chain: B1 chain
light: B1 light

ratio of amounts bound Z=Y/X (altered form / CE115HA000): 2.83
B13: CE115HA000 G98K one-arm antibody (antibody, human IgG1, kappa, L234A L235A, N297A, name in Kabat numbering)
heavy: B1 heavy with Q64E, G104K
chain: B1 chain
light: B1 light

ratio of amounts bound Z=Y/X (altered form / CE115HA000): 0.2
B14: CE115HA000 H35D one-arm antibody (antibody, human IgG1, kappa, L234A L235A, N297A, name in Kabat numbering)
heavy: B1 heavy with H35D, Q64E
chain: B1 chain
light: B1 light

ratio of amounts bound Z=Y/X (altered form / CE115HA000): 1.22
B15: CE115HA000 G98Q one-arm antibody (antibody, human IgG1, kappa, L234A L235A, N297A, name in Kabat numbering)
heavy: B1 heavy with Q64E, G104Q
chain: B1 chain
light: B1 light

ratio of amounts bound Z=Y/X (altered form / CE115HA000): 0.35
B16: CE115HA000 H35N one-arm antibody (antibody, human IgG1, kappa, L234A L235A, N297A, name in Kabat numbering)
heavy: B1 heavy with H35N, Q64E
chain: B1 chain
light: B1 light

ratio of amounts bound Z=Y/X (altered form / CE115HA000): 2.22
B17: CE115HA000 G98Y one-arm antibody (antibody, human IgG1, kappa, L234A L235A, N297A, name in Kabat numbering)
heavy: B1 heavy with Q64E, G104Y
chain: B1 chain
light: B1 light

ratio of amounts bound Z=Y/X (altered form / CE115HA000): 0.52
B18: CE115HA000 G100bS one-arm antibody (antibody, human IgG1, kappa, L234A L235A, N297A, name in Kabat numbering)
heavy: B1 heavy with Q64E, G108S
chain: B1 chain
light: B1 light

ratio of amounts bound Z=Y/X (altered form / CE115HA000): 0.27
B19: CE115HA000 G100bL one-arm antibody (antibody, human IgG1, kappa, L234A L235A, N297A, name in Kabat numbering)
heavy: B1 heavy with Q64E, G108L
chain: B1 chain
light: B1 light

ratio of amounts bound Z=Y/X (altered form / CE115HA000): 0.78
B20: CE115HA000 G65E one-arm antibody (antibody, human IgG1, kappa, L234A L235A, N297A, name in Kabat numbering)
heavy: B1 heavy with Q64E, G68E
chain: B1 chain
light: B1 light

ratio of amounts bound Z=Y/X (altered form / CE115HA000): 0.11
B21: CE115HA000 H35L one-arm antibody (antibody, human IgG1, kappa, L234A L235A, N297A, name in Kabat numbering)
heavy: B1 heavy with H35L, Q64E
chain: B1 chain
light: B1 light

ratio of amounts bound Z=Y/X (altered form / CE115HA000): 0.3
B22: CE115HA000 G100bF one-arm antibody (antibody, human IgG1, kappa, L234A L235A, N297A, name in Kabat numbering)
heavy: B1 heavy with Q64E, G108F
chain: B1 chain
light: B1 light

ratio of amounts bound Z=Y/X (altered form / CE115HA000): 0.23
B23: CE115HA000 G100bY one-arm antibody (antibody, human IgG1, kappa, L234A L235A, N297A, name in Kabat numbering)
heavy: B1 heavy with Q64E, G108Y
chain: B1 chain
light: B1 light

ratio of amounts bound Z=Y/X (altered form / CE115HA000): 0.29
B24: CE115HA000 H35M one-arm antibody (antibody, human IgG1, kappa, L234A L235A, N297A, name in Kabat numbering)
heavy: B1 heavy with H35M, Q64E
chain: B1 chain
light: B1 light

ratio of amounts bound Z=Y/X (altered form / CE115HA000): 0.76
B25: CE115HA000 G65D one-arm antibody (antibody, human IgG1, kappa, L234A L235A, N297A, name in Kabat numbering)
heavy: B1 heavy with Q64E, G68D
chain: B1 chain
light: B1 light

ratio of amounts bound Z=Y/X (altered form / CE115HA000): 0.27
B26: CE115HA000 G100bD one-arm antibody (antibody, human IgG1, kappa, L234A L235A, N297A, name in Kabat numbering)
heavy: B1 heavy with Q64E, G108D
chain: B1 chain
light: B1 light

ratio of amounts bound Z=Y/X (altered form / CE115HA000): 2.96
B27: CE115HA000 G98R one-arm antibody (antibody, human IgG1, kappa, L234A L235A, N297A, name in Kabat numbering)
heavy: B1 heavy with Q64E, G104R
chain: B1 chain
light: B1 light

ratio of amounts bound Z=Y/X (altered form / CE115HA000): 0.36
B28: CE115HA000 F29V one-arm antibody (antibody, human IgG1, kappa, L234A L235A, N297A, name in Kabat numbering)
heavy: B1 heavy with F29V, Q64E
chain: B1 chain
light: B1 light

ratio of amounts bound Z=Y/X (altered form / CE115HA000): 1.01
B29: CE115HA000 G98S one-arm antibody (antibody, human IgG1, kappa, L234A L235A, N297A, name in Kabat numbering)
heavy: B1 heavy with Q64E, G104S
chain: B1 chain
light: B1 light

ratio of amounts bound Z=Y/X (altered form / CE115HA000): 1.05
B30: CE115HA000 G98T one-arm antibody (antibody, human IgG1, kappa, L234A L235A, N297A, name in Kabat numbering)
heavy: B1 heavy with Q64E, G104T
chain: B1 chain
light: B1 light

ratio of amounts bound Z=Y/X (altered form / CE115HA000): 1.58
B31: CE115HA000 G98H one-arm antibody (antibody, human IgG1, kappa, L234A L235A, N297A, name in Kabat numbering)
heavy: B1 heavy with Q64E, G104H
chain: B1 chain
light: B1 light

ratio of amounts bound Z=Y/X (altered form / CE115HA000): 0.26
B32: CE115HA000 G98D one-arm antibody (antibody, human IgG1, kappa, L234A L235A, N297A, name in Kabat numbering)
heavy: B1 heavy with Q64E, G104D
chain: B1 chain
light: B1 light
